Source: article PMC4490372, “Architecture of TFIIIC and its role in RNA polymerase III pre-initiation complex assembly” (Nature Communications, 2015)

What was measured:
[1] = molecular target: T1, τ131 (123–566) E497K (S. cerevisiae, UniProt P33339 123-566, E497K); experiment: ITC
T1 sequence: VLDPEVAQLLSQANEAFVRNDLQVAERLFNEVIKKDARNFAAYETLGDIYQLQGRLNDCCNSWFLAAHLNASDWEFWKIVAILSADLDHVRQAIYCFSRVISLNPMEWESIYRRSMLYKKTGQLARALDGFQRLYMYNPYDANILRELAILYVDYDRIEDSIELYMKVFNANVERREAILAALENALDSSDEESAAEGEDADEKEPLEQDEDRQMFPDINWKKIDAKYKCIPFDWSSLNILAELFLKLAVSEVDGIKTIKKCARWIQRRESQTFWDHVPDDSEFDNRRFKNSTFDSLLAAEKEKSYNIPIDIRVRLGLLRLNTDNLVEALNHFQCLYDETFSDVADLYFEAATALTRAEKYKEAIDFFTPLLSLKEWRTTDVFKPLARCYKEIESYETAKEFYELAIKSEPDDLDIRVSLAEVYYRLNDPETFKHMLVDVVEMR

[2] = molecular target: T2, τ131 (123–566) E498K (S. cerevisiae, UniProt P33339 123-566, E498K); experiment: ITC
T2 sequence: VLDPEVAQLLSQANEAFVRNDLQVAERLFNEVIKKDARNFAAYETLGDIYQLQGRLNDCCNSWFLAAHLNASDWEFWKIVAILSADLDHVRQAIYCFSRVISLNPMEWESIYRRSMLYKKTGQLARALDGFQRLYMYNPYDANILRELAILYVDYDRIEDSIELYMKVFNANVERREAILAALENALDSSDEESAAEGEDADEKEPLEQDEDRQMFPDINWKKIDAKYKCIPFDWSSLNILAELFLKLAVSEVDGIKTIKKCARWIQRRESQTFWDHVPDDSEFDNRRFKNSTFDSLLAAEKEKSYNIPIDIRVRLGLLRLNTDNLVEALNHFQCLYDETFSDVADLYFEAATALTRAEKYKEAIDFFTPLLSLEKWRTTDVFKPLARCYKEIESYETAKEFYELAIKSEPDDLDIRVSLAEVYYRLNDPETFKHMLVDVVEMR

[3] = molecular target: T3, τ131 (123–566) E472K (S. cerevisiae, UniProt P33339 123-566, E472K); experiment: ITC
T3 sequence: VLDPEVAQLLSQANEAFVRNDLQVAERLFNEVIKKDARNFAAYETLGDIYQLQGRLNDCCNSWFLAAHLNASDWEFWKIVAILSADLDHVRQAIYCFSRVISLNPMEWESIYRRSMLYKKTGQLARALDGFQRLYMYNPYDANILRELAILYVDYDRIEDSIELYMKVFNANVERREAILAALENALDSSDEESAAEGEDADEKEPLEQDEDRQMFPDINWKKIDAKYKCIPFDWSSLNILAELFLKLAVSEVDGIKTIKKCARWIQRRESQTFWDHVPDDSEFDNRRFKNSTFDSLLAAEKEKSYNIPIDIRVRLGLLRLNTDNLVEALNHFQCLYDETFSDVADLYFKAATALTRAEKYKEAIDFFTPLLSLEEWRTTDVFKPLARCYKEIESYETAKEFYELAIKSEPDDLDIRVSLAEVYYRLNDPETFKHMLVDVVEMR

[4] = molecular target: T4, τ131 (123–566) E498K (S. cerevisiae, UniProt P33339 123-566, E498K); experiment: ITC; MicroCal ITC200; 15 μM τ138 in the cell, 150 μM τ131 in the syringe; 20 mM Tris pH 7.5, 150 mM NaCl, 2 mM β-mercaptoethanol; 25 °C; conditions: both partners purified
T4 construct: source: E. coli, purified by the same method as the wild type; not shown: His6, N-terminal, cleaved
T4 sequence (looked up): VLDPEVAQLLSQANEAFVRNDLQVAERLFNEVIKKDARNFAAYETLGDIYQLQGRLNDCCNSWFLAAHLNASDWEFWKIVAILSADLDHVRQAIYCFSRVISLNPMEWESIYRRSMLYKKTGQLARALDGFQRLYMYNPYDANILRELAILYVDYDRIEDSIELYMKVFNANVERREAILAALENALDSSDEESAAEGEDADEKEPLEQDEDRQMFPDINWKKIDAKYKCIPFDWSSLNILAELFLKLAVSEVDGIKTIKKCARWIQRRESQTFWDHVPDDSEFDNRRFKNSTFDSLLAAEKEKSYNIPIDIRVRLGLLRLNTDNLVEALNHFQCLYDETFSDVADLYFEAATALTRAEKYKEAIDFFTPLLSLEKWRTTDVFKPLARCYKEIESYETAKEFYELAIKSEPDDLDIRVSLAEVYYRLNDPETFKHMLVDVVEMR

[5] = molecular target: T5, τ131 (123–566) E472K (S. cerevisiae, UniProt P33339 123-566, E472K); experiment: as above; conditions: both partners purified
T5 construct: source: E. coli, purified by the same method as the wild type; not shown: His6, N-terminal, cleaved
T5 sequence (looked up): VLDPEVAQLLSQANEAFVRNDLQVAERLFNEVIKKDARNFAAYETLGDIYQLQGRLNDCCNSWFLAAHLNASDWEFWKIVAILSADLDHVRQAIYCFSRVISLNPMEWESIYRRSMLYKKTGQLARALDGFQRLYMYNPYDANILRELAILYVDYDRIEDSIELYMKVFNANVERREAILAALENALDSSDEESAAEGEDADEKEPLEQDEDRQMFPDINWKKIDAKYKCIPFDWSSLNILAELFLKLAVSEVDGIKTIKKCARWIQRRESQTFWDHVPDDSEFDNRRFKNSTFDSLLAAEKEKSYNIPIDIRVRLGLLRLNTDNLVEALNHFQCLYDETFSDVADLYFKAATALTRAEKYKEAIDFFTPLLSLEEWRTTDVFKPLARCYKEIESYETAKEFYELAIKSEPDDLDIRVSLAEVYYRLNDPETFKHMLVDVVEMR

[6] = molecular target: T6, τ131 (123–566) E497K (S. cerevisiae, UniProt P33339 123-566, E497K); experiment: as above; conditions: both partners purified
T6 construct: source: E. coli, purified by the same method as the wild type; not shown: His6, N-terminal, cleaved
T6 sequence (looked up): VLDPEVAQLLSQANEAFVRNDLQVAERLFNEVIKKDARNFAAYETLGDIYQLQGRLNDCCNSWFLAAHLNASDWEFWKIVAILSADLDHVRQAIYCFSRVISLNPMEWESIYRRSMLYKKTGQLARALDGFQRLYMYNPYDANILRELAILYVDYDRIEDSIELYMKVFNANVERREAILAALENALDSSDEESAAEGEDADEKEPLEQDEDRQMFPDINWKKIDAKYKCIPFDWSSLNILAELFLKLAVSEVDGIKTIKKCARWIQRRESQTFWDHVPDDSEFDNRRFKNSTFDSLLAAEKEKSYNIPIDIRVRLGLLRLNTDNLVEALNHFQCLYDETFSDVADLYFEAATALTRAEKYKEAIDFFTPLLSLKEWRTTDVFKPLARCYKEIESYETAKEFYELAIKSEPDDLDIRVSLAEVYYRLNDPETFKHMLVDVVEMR

[7] = molecular target: T7, τ131 (123–566), TPR array, wild type (S. cerevisiae, UniProt P33339 123-566); experiment: as above; conditions: both partners purified
T7 construct: also called τ131 TPR array; source: E. coli BL21 Star (DE3) pRARE, purified (Ni-NTA, TEV cleavage, S200 SEC); not shown: His6, N-terminal, cleaved
T7 sequence (looked up): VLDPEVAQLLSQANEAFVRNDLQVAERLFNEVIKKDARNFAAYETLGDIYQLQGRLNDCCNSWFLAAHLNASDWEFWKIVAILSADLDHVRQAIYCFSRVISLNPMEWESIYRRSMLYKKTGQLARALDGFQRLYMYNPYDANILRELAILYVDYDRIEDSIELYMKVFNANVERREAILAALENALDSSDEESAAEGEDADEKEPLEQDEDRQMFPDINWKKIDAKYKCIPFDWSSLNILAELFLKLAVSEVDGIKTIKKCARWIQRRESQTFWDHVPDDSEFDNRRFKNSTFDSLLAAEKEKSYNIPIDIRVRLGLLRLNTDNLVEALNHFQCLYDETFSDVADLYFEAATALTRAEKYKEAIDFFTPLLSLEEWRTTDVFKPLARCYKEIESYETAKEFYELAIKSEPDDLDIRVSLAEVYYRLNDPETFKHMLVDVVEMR

[8] = molecular target: T8, GST-tagged τ131 (123–566) E497K (S. cerevisiae, UniProt P33339 123-566, E497K); experiment: pull-down; 15 μg GST-tagged τ131 on Glutathione Sepharose 4B; 300 nM τ138 or Bdp1, or 1 μM Brf1–TBP; 50 mM Tris pH 7.5, 150 mM NaCl, 2 mM DTT, 0.1% Tween20; 4 °C, 4 h; conditions: both partners purified
T8 construct: source: E. coli BL21 (DE3) Gold, purified (GST column, S200 SEC)
T8 sequence (looked up): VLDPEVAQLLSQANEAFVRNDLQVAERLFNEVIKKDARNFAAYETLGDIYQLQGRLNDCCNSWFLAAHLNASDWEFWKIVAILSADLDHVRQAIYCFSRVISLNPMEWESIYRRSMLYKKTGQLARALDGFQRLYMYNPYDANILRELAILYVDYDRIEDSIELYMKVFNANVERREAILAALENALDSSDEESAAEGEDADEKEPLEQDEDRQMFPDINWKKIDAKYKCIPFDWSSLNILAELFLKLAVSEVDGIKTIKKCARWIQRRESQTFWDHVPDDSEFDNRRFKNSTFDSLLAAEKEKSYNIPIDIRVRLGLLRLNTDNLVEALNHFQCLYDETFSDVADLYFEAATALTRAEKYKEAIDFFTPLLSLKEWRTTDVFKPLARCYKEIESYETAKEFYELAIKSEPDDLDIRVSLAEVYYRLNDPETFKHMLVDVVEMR

[9] = molecular target: T9, GST-tagged τ131 (123–566) E472K (S. cerevisiae, UniProt P33339 123-566, E472K); experiment: as above; conditions: both partners purified
T9 construct: source: E. coli BL21 (DE3) Gold, purified (GST column, S200 SEC)
T9 sequence (looked up): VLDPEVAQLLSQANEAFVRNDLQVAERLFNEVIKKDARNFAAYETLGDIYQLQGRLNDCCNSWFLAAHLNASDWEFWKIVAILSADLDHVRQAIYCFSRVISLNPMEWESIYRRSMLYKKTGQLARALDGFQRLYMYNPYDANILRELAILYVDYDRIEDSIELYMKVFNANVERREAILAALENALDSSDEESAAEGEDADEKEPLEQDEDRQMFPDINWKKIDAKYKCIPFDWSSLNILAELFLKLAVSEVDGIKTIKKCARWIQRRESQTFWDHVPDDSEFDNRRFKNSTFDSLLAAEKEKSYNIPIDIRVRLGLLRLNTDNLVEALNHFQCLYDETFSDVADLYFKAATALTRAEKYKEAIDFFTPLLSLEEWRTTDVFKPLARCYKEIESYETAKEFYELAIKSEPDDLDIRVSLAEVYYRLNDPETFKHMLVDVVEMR

[10] = molecular target: T10, GST-tagged τ131 (123–566) E498K (S. cerevisiae, UniProt P33339 123-566, E498K); experiment: as above; conditions: both partners purified
T10 construct: source: E. coli BL21 (DE3) Gold, purified (GST column, S200 SEC)
T10 sequence (looked up): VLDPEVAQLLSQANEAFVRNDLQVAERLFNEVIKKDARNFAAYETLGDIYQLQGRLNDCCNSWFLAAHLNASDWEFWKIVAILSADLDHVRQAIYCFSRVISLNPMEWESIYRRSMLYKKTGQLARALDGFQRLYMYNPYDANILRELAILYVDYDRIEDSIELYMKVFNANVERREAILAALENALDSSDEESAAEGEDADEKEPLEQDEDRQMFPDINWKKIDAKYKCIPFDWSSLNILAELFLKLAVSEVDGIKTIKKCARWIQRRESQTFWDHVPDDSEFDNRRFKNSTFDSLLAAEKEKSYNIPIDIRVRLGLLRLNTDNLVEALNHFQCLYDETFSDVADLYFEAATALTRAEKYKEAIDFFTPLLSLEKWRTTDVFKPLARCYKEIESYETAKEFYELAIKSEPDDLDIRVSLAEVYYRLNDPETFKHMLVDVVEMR

Kd [1]: 99 nM
Kd [2]: 971 nM
Kd [3]: 415 nM
binding result [4]: binds
binding result [5]: binds
binding result [6]: binds
Kd [7]: ~100 nM
binding result [8]: binds
binding result [9]: binds
binding result [10]: binds
B1: τ138 (546–693), eWH-τIR (domain or fragment, S. cerevisiae, UniProt P34111 546-693, looked up)
chain: SARSLRSLQRQRAILKVMNTIGGVAYLREQFYESVSKYMGSTTTLDKKTVRGDVDLMVESEKLGARTEPVSGRKIIFLPTVGEDAIQRYILKEKDSKKATFTDVIHDTEIYFFDQTEKNRFHRGKKSVERIRKFQNRQKNAKIKASDD
notes: the cloning of this construct is not described; also called τ138 (eWH-τIR); central region of τ138; source: purified; expression of this construct not described
